Laboratory results from patent US10052364B2, “Osteocalcin as a treatment for cognitive disorders” (THE TRUSTEES OF COLUMBIA UNIVERSITY IN THE CITY OF NEW YORK, priority 2013, dated 2018).

What was measured:
Format in all cases: in vivo, mouse
[1] = tested on: CREB phosphorylation in the hippocampus; experiment: Acute stereotactic injection into the hippocampus, pCREB and PKA immunofluorescence; details: 10 ng into hippocampus of WT animals, 16 h post injection
Procedure: (§1) FIG. 10. Osteocalcin administration results in CREB phosphorylation. (A) p-CREB immunofluorescence (IF) in the dentate gyms (DG) of WT and Ocn−/− hippocampal region. (B) p-CREB IF in WT brain sections following a dual stereotactic injection of vehicle (PBS) (on the left) or Ocn (10 ng) (on the right) in the hippocampus. The arrows point toward the DG. (C) PKA IF in WT brain sections following a dual stereotactic injection of vehicle (PBS) (on the right) or Ocn (10 ng) (on the left) in the hippocampus.
(§2) The resulting effects on animal behavior of direct recombinant uncarboxylated osteocalcin delivery raise the question of the molecular mechanism of action of osteocalcin in the brain. Given that osteocalcin acts through a G-protein coupled receptor pathway in other tissues, e.g., pancreas and testis, the phosphorylated CREB levels in the hippocampi of Ocn−/− and WT animals was checked. […] The hippocampus is essential for optimal spatial learning and memory in rodents. It was then asked whether the acute stereotactic injection of 10 ng of recombinant uncarboxylated osteocalcin directly into the hippocampus of WT animals would affect pCREB levels. At 16 h post injection, pCREB staining was increased in the hemisphere injected with osteocalcin versus the one injected with PBS in the same animal (FIG. 10B).

[2] = as above; details: 10 ng into hippocampus, 16 h post injection
Procedure: as §1, §2

[3] = tested on: Osteocalcin-/- mice born from Osteocalcin-/- mothers; experiment: Osteocalcin injections in pregnant Osteocalcin-/- mothers (E0.5-E18.5): offspring behavior and brain histology
Procedure: FIG. 7. Maternal osteocalcin determines spatial learning and memory in adult offspring. (A-F) DLT (A), EPMT (B), OFT (C), FST (D), TST (E), and MWMT (F) performed in 3-month-old Ocn^−/− mice born from Ocn^−/− mothers injected once a day with vehicle or osteocalcin (240 ng/day) during pregnancy compared to WT mice. (G) Surface of the lateral ventricle over brain area (%) of E18.5 hippocampi coronal sections of WT embryos originating from WT mothers and Ocn^−/− embryos originating from osteocalcin-injected Ocn^−/− mothers. (H) Number of apoptotic cells (stained by TUNEL assay) of E18.5 hippocampi coronal sections of WT embryos originating from WT mothers and Ocn^−/− embryos originating from Ocn^−/− mothers injected with osteocalcin (240 ng/day). (I) Cresyl violet, NeuN immunofluorescence, and dentate gyms area (% versus WT) of WT and Ocn^−/− embryos originating from osteocalcin-injected Ocn^−/− mothers. Scale bars=0.5 mm.
Osteocalcin^−/−, Gprc6a^−/−, Osteocalcin-mCherry, and Osteocalcin floxed mice have been previously described (Ducy et al., 1996, Nature 382:448-452; Oury et al., 2011, Cell 144:796-809). Mouse genotypes were determined by PCR. For all experiments, controls were littermate female WT, Cre-expressing, or flox/flox. All mice were maintained on a pure 129-Sv genetic background except for the inducible deletion Osteocalcin model (mix background: 25% C57/BL6 and 75% 129sv). For inducible gene deletion mice, tamoxifen was prepared in corn oil and injected intraperitoneally (IP) (1 mg/20 g of body weight) over one week. For osteocalcin delivery to pregnant mice, IP injections (240 ng/day) were performed as soon as a plug was present daily until delivery (E0.5-E18.5). For osteocalcin or leptin infusion in adult Osteocalcin^−/− or ob/ob mice, pumps (Alzet micro-osmotic pump, Model 1002) delivering osteocalcin (300 ng/hr), leptin (50 ng/hr), or vehicle were surgically installed subcutaneously in the backs of 3-month old mice. For the postnatal rescue of cognitive functions in Osteocalcin^−/− mice, osteocalcin (10 ng/hour) or vehicle were delivered intrasubventricularly (icy) as previously described (Ducy et al., 2000, Cell 100:197-207). Leptin and osteocalcin content in sera and tissues were determined by ELISA.
Cresyl violet staining to visualize brain morphology was carried out by incubating 20 μm cryosections defatted with 1:1 chloroform:ethanol in cresyl violet acetate (1 g/L) overnight. The stain was differentiated using ethanol and xylene and mounted using DPX mounting medium for histology (Sigma).
To assess apoptosis in WT and Osteocalcin^−/− brains, 20 μm cryostat sections were processed using the APOPTAG® Fluorescein Direct In Situ Apoptosis Detection Kit (Millipore) according to manufacturer's protocol. Images were obtained using Leica DM 4000B, and Image J was used to quantify cell number and intensity of staining.
For western blotting, frozen hippocampi from E18.5 embryos were lysed and homogenized in 250 μl tissue lysis buffer (25 mM Tris HCl 7.5; 100 mM NaF; 10 mM Na4P2O7; 10 mmM EDTA; 1% NP 40). Samples were pooled together in threes by genotype to reduce variability. Proteins were transferred to nitrocellulose membranes and blocked with TBST-5% milk prior to overnight incubation with primary antibody in TBST-5% BSA. HRP-coupled secondary antibodies and ECL were used to visualize the signal.
To further evaluate the importance of maternal osteocalcin for the acquisition of spatial learning and memory in adult offspring, pregnant Osteocalcin^−/− mothers from E0.5 to E18.5 were treated with injections, once a day, of osteocalcin (240 ng/day). Osteocalcin was never injected in these females or their pups after delivery. […] Likewise, the number of apoptotic cells was reduced and the number of NeuN positive cells was increased compared to Osteocalcin^−/− embryos originating from Osteocalcin^−/− mothers that were not injected (FIG. 7I-J).

[4] = 240 ng/day once a day to pregnant Osteocalcin-/- mothers, E0.5 to E18.5

B1: uncarboxylated osteocalcin: Recombinant osteocalcin bacterially produced, cleaved from the GST subunit; completely undercarboxylated at all three sites (protein, listed as Homo sapiens)
chain: MRALTLLALLALAALCIAGQAGAKPSGAESSKGAAFVSKQEGSEVVKRPRRYLYQWLGAPVPYPDPLEPRREVCELNPDCDELADHIGFQEAYRRFYGPV
modifications: uncarboxylated
notes: Recombinant osteocalcin bacterially produced, cleaved from the GST subunit; completely undercarboxylated at all three sites
**Q.** With B1 as the molecule, how does the “pCREB staining in injected hemisphere versus PBS hemisphere” value [1] read?
**A.** increased

**Q.** What about the “PKA staining in the injected hemisphere” value [2] of the same molecule?
**A.** widespread and dramatic increase

**Q.** And the “anxiety or depression phenotypes of adult offspring” value [3, 4]?
**A.** did not have any beneficial effect

**Q.** And the “deficit in learning and memory of adult offspring” value [3, 4]?
**A.** rescued over two third of their deficit

**Q.** What about the “cerebral ventricle enlargement in brains of E18.5 Osteocalcin-/- embryos (cresyl violet)” value ([3]; injection of the pregnant Osteocalcin-/- mothers, 240 ng/day) of the same molecule?
**A.** rescue of the cerebral ventricle enlargement

**Q.** And the “thickness defect in the CA3 and CA4 regions of the hippocampus in adult Osteocalcin-/- offspring” value ([3]; mothers injected during pregnancy)?
**A.** rescue of the thickness defect

**Q.** What about the “number of NeuN positive cells” value ([3]; versus embryos from Osteocalcin-/- mothers not injected) of the same molecule?
**A.** increased

**Q.** And the “number of apoptotic cells in E18.5 embryo hippocampus” value ([3]; versus embryos from Osteocalcin-/- mothers not injected, listed as Uncarboxylated osteocalcin)?
**A.** prevent this neuronal apoptosis

**Q.** And the “number of apoptotic cells in E18.5 embryo hippocampus” value ([3]; versus embryos from Osteocalcin-/- mothers not injected, listed as osteocalcin)?
**A.** reduced

**Q.** And the “Caspase-3 cleaved protein level in hippocampus of E18.5 embryos (Western blot)” value ([3]; versus embryos from mothers not injected)?
**A.** decrease
